Data published in patent US20150065420A1 (EXTEND BIOSCIENCES, published 2015).

Molecular target: GHS-R (ghrelin receptor) expressed on CHO-K1 cells
Experiment: cell-based or functional assay

Chain of GHS-R (ghrelin receptor) expressed on CHO-K1 cells (Q92847 whole entry): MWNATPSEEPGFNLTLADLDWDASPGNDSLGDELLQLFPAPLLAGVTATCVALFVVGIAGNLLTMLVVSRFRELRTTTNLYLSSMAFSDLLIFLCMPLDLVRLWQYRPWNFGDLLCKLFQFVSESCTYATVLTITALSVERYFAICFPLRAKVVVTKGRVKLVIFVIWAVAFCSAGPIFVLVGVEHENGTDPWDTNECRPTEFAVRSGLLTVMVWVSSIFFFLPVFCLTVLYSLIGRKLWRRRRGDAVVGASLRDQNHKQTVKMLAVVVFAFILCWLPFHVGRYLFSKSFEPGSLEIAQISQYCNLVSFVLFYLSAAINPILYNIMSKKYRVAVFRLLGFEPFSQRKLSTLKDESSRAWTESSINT

B1: Vitamin D3-PEG-maleimide carrier-conjugated ghrelin from Example 3 (peptide)
peptide: GSSFLSPEHQKAQQRKESKKPPAKLQPRC
modifications: n-octanoyl on Ser 3; added C-terminal Cys conjugated through its thiol to the Vitamin D3-PEG(2 kDa)-maleimide carrier of Example 1
EC50 of intracellular calcium flux (FLIPR, % activation) in GHS-R-expressing CHO-K1 cells: 85 nM
